{
  "source": "paper doi:10.1101/2021.02.26.432832",
  "about": "(bioRxiv, 2021)",
  "binders": {"B1": {"name": "GST-tagged full-length Ioc4 (natural protein)", "chain": "MSEAIFQPTDIVLAKVKGFSAWPAMIIPNELIPDNILKTKPVSVHKGKSGSDKKANEDIDADMESEARDREQSEEEEDIEDFGESEANPEKFIIYTPVLKFRKNDTLKSTYCVKFFCDDSYIWVKPMDMKILTSEDCRKWLSGKQRKNKKLIPAYEMAMRGKNGIDIWEFVEYGSYGKPDEEEYVEEEEEENEPEKKAIRPTRSSSRQRQKRASETEKSEGGNSNKRKRVTRSTRQQAIDASEEEEEEEEEKVQEAVRKRPQRTKTKKVVVSKTKPNPKTKAKKEKPKPPKPIKYHFEDDEDWSIVGLGPQDLSIEKTMDPIAKKLSQKKNLEKHVEIKLDLEDKLAGINKLLCDVLCSAINQAVSIKDDFEIILDELQIALDTRGSRNEFITIFQSNNSLLLNFRILFNLRKRELNKWDLWDRFQDIFKHIYSYQFIPDTEDWQLEQNMEIEEMDREKPSFSEDVKEEESKVGA"}},
  "molecular_target": "recombinant, reconstituted histone H3/H4 tetramers (Xenopus laevis, UniProt P84233;P62799)",
  "test": "pull-down",
  "data": [
    {"binder": "B1", "values": [
      {"measurement": "binding result", "result": "binds"}
    ]}
  ]
}
